Assay results reported in the RNAGym collection of RNA variant scans (doi:10.1073/pnas.2313332121).
This sample holds only a part of the variants without activity.

B1: TPR 5TU (parent)
chain: GGAUCUUCUCGAUCUAACAAAAAAGACAAAUCUGCCACAAAGCUUGAGAGCAUCUUCGGAUGCAGAGGCGGCAGCCUUCGGUGGCGCGAUAGCGCCAACGUUCUCAACUAUGACACGCAAAACGCGUGCUCCGUUGAAUGGAGUUUAUCAUG

Variants of: B1
Assay: polymerase ribozyme fitness, log enrichment relative to wild type (log ratio); higher = more active; in vitro selection for triplet polymerase activity
In short: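 A single round of triplicate in vitro selection, including frozen incubation at −7 °C, was applied to PCR-built, transcribed mutant libraries of each subunit of a heterodimeric triplet polymerase ribozyme. Illumina sequencing of input and output libraries retained genotypes with ≥10 input reads and ≥1 read per output. Fitness is the base-2 logarithm of genotype enrichment divided by wild-type enrichment, from inverse-variance-weighted replicate averages.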

With A47U C51U C87U A113U G152A as the variant, how does the “polymerase ribozyme fitness (log ratio)” value read?
Its value is -3.99.

For A39G A91G, which “polymerase ribozyme fitness (log ratio)” value is on record?
Its value is -3.4.

Which “polymerase ribozyme fitness (log ratio)” value does the source give for A3U C108U here?
Its value is -3.59.

With G86A A121U as the variant, how does the “polymerase ribozyme fitness (log ratio)” value read?
The value was -0.51.

For C14G A66U C69A, which “polymerase ribozyme fitness (log ratio)” value is on record?
The value was at most -4.2.

With C105A G140U as the variant, how does the “polymerase ribozyme fitness (log ratio)” value read?
Its value is -4.11.

Which “polymerase ribozyme fitness (log ratio)” value does the source give for A20U A40C G80U G83A C99U G133U A142G U145C here?
The value was at most -4.2.

For A52C C85A C93U C96G A121C U146C, which “polymerase ribozyme fitness (log ratio)” value is on record?
Its value is at most -4.2.

For C57G G81U C85G C96U U134A, which “polymerase ribozyme fitness (log ratio)” value is on record?
Its value is -4.03.

With C63G U90G G94A as the variant, how does the “polymerase ribozyme fitness (log ratio)” value read?
Its value is -3.97.

For A24U C35U G42C C93U G136C A142G, which “polymerase ribozyme fitness (log ratio)” value is on record?
The value was -4.03.

Which “polymerase ribozyme fitness (log ratio)” value does the source give for U9G G58A C75U G83U C95A C131A here?
The value was at most -4.2.

With A52G G62A C76U U145A as the variant, how does the “polymerase ribozyme fitness (log ratio)” value read?
Its value is -2.04.

With A22U C38A G59A C85U C95A as the variant, how does the “polymerase ribozyme fitness (log ratio)” value read?
The value was -0.962.

For U44A U56A U61A A97U, which “polymerase ribozyme fitness (log ratio)” value is on record?
Its value is at most -4.2.

Which “polymerase ribozyme fitness (log ratio)” value does the source give for C85U G92A G143U here?
Its value is -4.16.

Which “polymerase ribozyme fitness (log ratio)” value does the source give for A20U A113U here?
Its value is -3.74.

With C14U G25C A26C G42A A60U G84A C108U G152A as the variant, how does the “polymerase ribozyme fitness (log ratio)” value read?
The value was at most -4.2.

Which “polymerase ribozyme fitness (log ratio)” value does the source give for A12G A16U G50A G83C C85A U90C here?
Its value is at most -4.2.

Which “polymerase ribozyme fitness (log ratio)” value does the source give for A40U C105G here?
The value was -0.905.

With U134G as the variant, how does the “polymerase ribozyme fitness (log ratio)” value read?
Its value is -2.37.

For A52U G143U U148A, which “polymerase ribozyme fitness (log ratio)” value is on record?
Its value is -4.01.

Which “polymerase ribozyme fitness (log ratio)” value does the source give for U15C U56A C79A G80U C96U C103A A107C U146A here?
The value was at most -4.2.

For A47C G124U, which “polymerase ribozyme fitness (log ratio)” value is on record?
Its value is -1.09.

With C96G A142G U145G A147U as the variant, how does the “polymerase ribozyme fitness (log ratio)” value read?
The value was -2.85.

With A37U G50C U78C A98U U134C as the variant, how does the “polymerase ribozyme fitness (log ratio)” value read?
Its value is at most -4.2.

Which “polymerase ribozyme fitness (log ratio)” value does the source give for A12U U55A G141A here?
Its value is -1.32.

With A22U A29C A47G U134C U139A as the variant, how does the “polymerase ribozyme fitness (log ratio)” value read?
The value was at most -4.2.

Which “polymerase ribozyme fitness (log ratio)” value does the source give for A21G here?
The value was 0.531.

With A21C as the variant, how does the “polymerase ribozyme fitness (log ratio)” value read?
Its value is 0.199.

For G62A C76A C79A C96A, which “polymerase ribozyme fitness (log ratio)” value is on record?
The value was at most -4.2.

Which “polymerase ribozyme fitness (log ratio)” value does the source give for A24C G46A C116G here?
Its value is -4.14.

Which “polymerase ribozyme fitness (log ratio)” value does the source give for U15C A91U here?
Its value is at most -4.2.

For A137U U145A A147C, which “polymerase ribozyme fitness (log ratio)” value is on record?
The value was at most -4.2.

With C96G C114A as the variant, how does the “polymerase ribozyme fitness (log ratio)” value read?
Its value is -4.19.

For C27A A60U G133A U135C A150U, which “polymerase ribozyme fitness (log ratio)” value is on record?
The value was at most -4.2.

Which “polymerase ribozyme fitness (log ratio)” value does the source give for U6A C14U U82C G86A here?
The value was -4.09.

With C87U C103G C116U as the variant, how does the “polymerase ribozyme fitness (log ratio)” value read?
Its value is -1.35.

Which “polymerase ribozyme fitness (log ratio)” value does the source give for C85U G92U U139G here?
The value was -1.29.

For A40U G92A A98U U145G A147U, which “polymerase ribozyme fitness (log ratio)” value is on record?
Its value is -4.09.

With C8U A52U U56A U61A C75U C93U C99G C132G as the variant, how does the “polymerase ribozyme fitness (log ratio)” value read?
Its value is at most -4.2.

For G92A C125A U134G, which “polymerase ribozyme fitness (log ratio)” value is on record?
Its value is -3.58.

For G50A U55A A91U U135C, which “polymerase ribozyme fitness (log ratio)” value is on record?
The value was at most -4.2.

Which “polymerase ribozyme fitness (log ratio)” value does the source give for A47U U55G G94A here?
The value was -0.633.

With U31C A52C U56A U82C A107U as the variant, how does the “polymerase ribozyme fitness (log ratio)” value read?
Its value is at most -4.2.

For C38U C85U A107U C125G A147C, which “polymerase ribozyme fitness (log ratio)” value is on record?
The value was at most -4.2.

For A3U C105G, which “polymerase ribozyme fitness (log ratio)” value is on record?
The value was -1.75.

Which “polymerase ribozyme fitness (log ratio)” value does the source give for C87G U90C here?
Its value is -4.07.

Which “polymerase ribozyme fitness (log ratio)” value does the source give for A23C G133A U135C G141A A150C here?
The value was at most -4.2.

Which “polymerase ribozyme fitness (log ratio)” value does the source give for U45A A52G C116G here?
Its value is -3.56.

For A23G A29G C95G G152U, which “polymerase ribozyme fitness (log ratio)” value is on record?
The value was -3.84.

With U45A C79G G84C C93G U102G as the variant, how does the “polymerase ribozyme fitness (log ratio)” value read?
Its value is at most -4.2.

For A40G U56A G67A G83A, which “polymerase ribozyme fitness (log ratio)” value is on record?
Its value is at most -4.2.

Which “polymerase ribozyme fitness (log ratio)” value does the source give for A52G G86A C93A G143A here?
Its value is at most -4.2.

Which “polymerase ribozyme fitness (log ratio)” value does the source give for C35U G133U here?
Its value is -3.79.

With G94C A97U G136U as the variant, how does the “polymerase ribozyme fitness (log ratio)” value read?
The value was -3.38.

With C54A C95U as the variant, how does the “polymerase ribozyme fitness (log ratio)” value read?
The value was -2.22.

Which “polymerase ribozyme fitness (log ratio)” value does the source give for A26C G50C G71U A73G here?
Its value is at most -4.2.

With A37C C63G C99A U111C C114U A119U as the variant, how does the “polymerase ribozyme fitness (log ratio)” value read?
Its value is at most -4.2.

Which “polymerase ribozyme fitness (log ratio)” value does the source give for G48A G67U G80C C85U C132U here?
The value was at most -4.2.

For U13C A20C A21C G58A U82A U101A, which “polymerase ribozyme fitness (log ratio)” value is on record?
The value was -1.36.

With C14G U82A U101G as the variant, how does the “polymerase ribozyme fitness (log ratio)” value read?
Its value is -2.29.

For U13G C87G, which “polymerase ribozyme fitness (log ratio)” value is on record?
The value was at most -4.2.

For A30U C51G A98U G136U, which “polymerase ribozyme fitness (log ratio)” value is on record?
The value was at most -4.2.

For A52G C108G, which “polymerase ribozyme fitness (log ratio)” value is on record?
The value was at most -4.2.

With C38A U53A C87U as the variant, how does the “polymerase ribozyme fitness (log ratio)” value read?
Its value is -1.39.

With U31C A97G U135C U146C as the variant, how does the “polymerase ribozyme fitness (log ratio)” value read?
The value was -1.76.

With A19C A21C A26C U44A C57A U61A G68A G86A C118U as the variant, how does the “polymerase ribozyme fitness (log ratio)” value read?
The value was at most -4.2.

For C5A C76U G84U C125U G141U, which “polymerase ribozyme fitness (log ratio)” value is on record?
The value was -3.64.

Which “polymerase ribozyme fitness (log ratio)” value does the source give for U6G A47U U61G C69A here?
Its value is at most -4.2.

For A39C G81A G94U A106G A110C G140U, which “polymerase ribozyme fitness (log ratio)” value is on record?
Its value is -4.04.

Which “polymerase ribozyme fitness (log ratio)” value does the source give for U13A A22U A89G C95A here?
Its value is -1.67.

For G74A C85A U90C G141A U148C, which “polymerase ribozyme fitness (log ratio)” value is on record?
Its value is at most -4.2.

With A40U C95U G124C G133U as the variant, how does the “polymerase ribozyme fitness (log ratio)” value read?
Its value is at most -4.2.

For U55A C96G, which “polymerase ribozyme fitness (log ratio)” value is on record?
Its value is -1.04.

For C96A A98U C103G U109A A121U, which “polymerase ribozyme fitness (log ratio)” value is on record?
The value was at most -4.2.

For G50U U61G C108U U135A, which “polymerase ribozyme fitness (log ratio)” value is on record?
Its value is at most -4.2.

With A28G A49C C76U G94U A150G as the variant, how does the “polymerase ribozyme fitness (log ratio)” value read?
Its value is at most -4.2.

For G80C, which “polymerase ribozyme fitness (log ratio)” value is on record?
Its value is -3.5.

Which “polymerase ribozyme fitness (log ratio)” value does the source give for A21G C38U A47C U90A C96A A137U here?
Its value is at most -4.2.

Which “polymerase ribozyme fitness (log ratio)” value does the source give for C72U C93U U111C A119U A142G here?
The value was at most -4.2.

For C43U U61A G80A G94U A106C A122U, which “polymerase ribozyme fitness (log ratio)” value is on record?
The value was at most -4.2.

Which “polymerase ribozyme fitness (log ratio)” value does the source give for A41C G86U C123U here?
The value was -2.13.
